Consider 1 substance from US20070010430A1.

In one test the target is MMP-9. Kind of test: cell-based or functional assay.
The target of another test is MMP-2. Kind of test: cell-based or functional assay.

As for “shark cartilage extract obtained in Section (1) of Example 1 (water extract of blue shark cartilage, ethanol precipitate)”, the decomposition-inhibition rate (type V collagen degradation, SDS-PAGE/western blot densitometry) with MMP-9 and with MMP-2 was 90% throughout.
